According to US20210079089A1 (SURROZEN OPERATING, published 2021):

Key:
LRP6E3E4_O75581_631-1246 [1] = target: T1, LRP6E3E4_O75581_631-1246 (Homo sapiens (Human), UniProt O75581 631-1246); assay: co-crystal structure (figure legend)
T1 construct: also called LRP6E3E4 construct used for structural studies
T1 sequence: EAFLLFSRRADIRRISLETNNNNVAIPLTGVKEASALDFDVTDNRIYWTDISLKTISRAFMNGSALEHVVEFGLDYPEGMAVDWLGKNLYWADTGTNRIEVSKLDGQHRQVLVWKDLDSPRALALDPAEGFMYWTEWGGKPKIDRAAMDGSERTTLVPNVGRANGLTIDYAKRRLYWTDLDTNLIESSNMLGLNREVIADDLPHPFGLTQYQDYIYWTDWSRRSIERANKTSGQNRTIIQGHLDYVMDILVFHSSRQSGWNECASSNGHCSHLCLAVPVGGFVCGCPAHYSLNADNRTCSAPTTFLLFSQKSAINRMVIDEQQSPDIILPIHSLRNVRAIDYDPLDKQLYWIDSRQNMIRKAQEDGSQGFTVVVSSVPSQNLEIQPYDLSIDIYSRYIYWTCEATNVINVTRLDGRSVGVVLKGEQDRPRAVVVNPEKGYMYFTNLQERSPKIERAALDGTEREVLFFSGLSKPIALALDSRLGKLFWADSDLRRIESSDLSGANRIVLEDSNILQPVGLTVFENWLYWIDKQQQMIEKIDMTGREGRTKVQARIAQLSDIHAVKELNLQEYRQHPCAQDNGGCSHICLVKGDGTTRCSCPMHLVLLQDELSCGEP
Protocol: (§1) Structure of Lrp6E3E4:VHH/Fab complexes were determined by molecular replacement method using Phaser [Phaser crystallographic software. A. J. McCoy, R. W. Grosse-Kunstleve, P. D. Adams, M. D. Winn, L. C. Storoni, and R. J. Read. J Appl Crystallogr 40, 658-674 (2007)] with published structures Lrp6E3E4 [PDB code: 4AOP; Chen S, Bubeck D, MacDonald B T, Liang W X, Mao J H, Malinauskas T, Llorca O, Aricescu A R, Siebold C, He X, Jones E Y. Dev. Cell 21 848-61 (2011)] and a VHH or sdAb [PDB code: 6B20, chain E; Gulati S, Jin H, Masuho I, Orban T, Cai Y, Pardon E, Martemyanov K A, Kiser P D, Stewart P L, Ford C P, Steyaert J, Palczewski K. Nat Commun 91996 (2018)], followed by refinement and validation by MolProbity as implemented in Phenix [PHENIX: a comprehensive Python-based system for macromolecular structure solution. P. D. Adams, P. V. Afonine, G. Bunkoczi, V. B. Chen, I. W. Davis, N. Echols, J. J. Headd, L. W. Hung, G. J. Kapral, R. W. Grosse-Kunstleve, A. J. McCoy, N. W. Moriarty, R. Oeffner, R. J. Read, D. C. Richardson, J. S. Richardson, T. C. […]
(§2) Diffraction quality crystals of Lrp6E3E4:VHH36 (concentration=14.0 mg/mL) were obtained by grid-screen optimization in a condition containing 1.6 M ammonium sulfate and 0.1 M Tris pH 8.2. […] Structure of Lrp6E3E4:VHH36 complex was determined at a resolution of 2.70 Å, and refined to Rcryst and Rfree factors of 18.6% and 22.8%, respectively.

LRP6E3E4_O75581_631-1246 [2] = target: T2, LRP6E3E4_O75581_631-1246 (Homo sapiens (Human), UniProt O75581 631-1246, biotinylated in the BLI/SPR assays (C-terminal biotin acceptor peptide)); assay: Octet BLI, affinity class
T2 construct: The entry holds residues 631-1246 of UniProt O75581 followed by a biotin acceptor peptide and eight His
T2 sequence: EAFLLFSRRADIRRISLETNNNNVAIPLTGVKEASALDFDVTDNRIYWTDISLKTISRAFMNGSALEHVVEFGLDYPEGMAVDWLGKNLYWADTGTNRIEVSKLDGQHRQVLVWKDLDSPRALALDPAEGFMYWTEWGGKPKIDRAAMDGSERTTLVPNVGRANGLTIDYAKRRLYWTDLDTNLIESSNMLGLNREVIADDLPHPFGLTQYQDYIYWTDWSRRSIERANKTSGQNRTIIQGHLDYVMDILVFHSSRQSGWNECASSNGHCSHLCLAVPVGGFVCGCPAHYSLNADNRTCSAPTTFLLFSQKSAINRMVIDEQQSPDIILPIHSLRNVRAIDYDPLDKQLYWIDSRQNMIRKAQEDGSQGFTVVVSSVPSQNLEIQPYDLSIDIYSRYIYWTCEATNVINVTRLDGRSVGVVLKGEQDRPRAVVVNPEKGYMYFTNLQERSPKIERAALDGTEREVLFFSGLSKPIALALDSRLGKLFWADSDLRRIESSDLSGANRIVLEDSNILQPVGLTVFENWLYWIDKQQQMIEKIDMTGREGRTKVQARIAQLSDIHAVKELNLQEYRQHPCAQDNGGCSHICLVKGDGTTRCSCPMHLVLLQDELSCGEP
Protocol: (§3) Binding kinetics of antibody fragments to LRP5 extracellular domain (LRP5 ECD) and/or LRP6 extracellular domain (LRP6 ECD) protein targets was determined by bio-layer interferometry (BLI) using Octet Red 96 (PALL ForteBio, Fremont, Calif.) instruments at 30° C., 1000 rpm with streptavidin (SA) biosensors. C-terminal biotinylated LRP ECD recombinant protein was diluted to 20 nM in the running buffer (PBS, 0.05% Tween-20, 0.5% BSA, pH 7.2) and captured to the SA biosensor until coupling length reached 0.2 nm. Following capture of the LRP5 or LRP6, the SA biosensor with captured biotinylated-LRP5 or biotinylated LRP6 was dipped into wells containing the relevant antibody fragment at […] (0, 1.37, 4.12, 12.4, 37, 111.1, 333.3, 1000 nM) in running buffer, plus a well with only running buffer as a reference channel. KD was determined by global fitting, 1:1 binding model according to manufacturer recommended settings.

LRP6e1e2 = target: T3, LRP6e1e2 (UniProt O75581 20-630, limits assumed, C-terminally biotinylated); assay: Octet BLI, affinity class
T3 construct: domain: E1E2; also called LRP6 E1E2 domains
T3 sequence (looked up): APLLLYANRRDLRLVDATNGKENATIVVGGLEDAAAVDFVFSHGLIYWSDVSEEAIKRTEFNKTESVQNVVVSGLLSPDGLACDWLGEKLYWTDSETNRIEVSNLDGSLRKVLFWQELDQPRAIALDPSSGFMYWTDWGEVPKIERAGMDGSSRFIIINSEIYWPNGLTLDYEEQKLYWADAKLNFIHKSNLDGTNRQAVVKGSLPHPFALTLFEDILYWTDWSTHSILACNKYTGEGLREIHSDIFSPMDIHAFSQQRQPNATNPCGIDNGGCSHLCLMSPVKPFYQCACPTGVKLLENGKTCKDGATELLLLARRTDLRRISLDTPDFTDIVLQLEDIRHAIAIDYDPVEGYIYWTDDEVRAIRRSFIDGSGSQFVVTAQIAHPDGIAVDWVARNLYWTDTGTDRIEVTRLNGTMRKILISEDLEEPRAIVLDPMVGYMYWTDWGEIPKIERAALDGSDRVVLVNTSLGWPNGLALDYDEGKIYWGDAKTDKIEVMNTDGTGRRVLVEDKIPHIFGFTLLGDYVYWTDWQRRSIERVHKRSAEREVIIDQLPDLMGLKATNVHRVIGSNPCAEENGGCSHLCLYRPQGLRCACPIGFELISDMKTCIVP
Protocol: as §3

LRP6E3E4_O75581_631-1246 [3] = target: T2, LRP6E3E4_O75581_631-1246; assay: Octet BLI or BIAcore SPR; Table 1B (heavy-chain-only clones)
LRP6E3E4_O75581_631-1246 [4] = target: T2, LRP6E3E4_O75581_631-1246; assay: Octet BLI or BIAcore SPR
biotinylated-LRP6 CRD = target: T4, biotinylated-LRP6 CRD (UniProt O75581 631-1246, limits assumed, biotinylated); assay: Octet BLI, biotinylated LRP6; wild type 009S-E04, not an alanine mutant
T4 construct: LRP6 has no CRD
T4 sequence (looked up): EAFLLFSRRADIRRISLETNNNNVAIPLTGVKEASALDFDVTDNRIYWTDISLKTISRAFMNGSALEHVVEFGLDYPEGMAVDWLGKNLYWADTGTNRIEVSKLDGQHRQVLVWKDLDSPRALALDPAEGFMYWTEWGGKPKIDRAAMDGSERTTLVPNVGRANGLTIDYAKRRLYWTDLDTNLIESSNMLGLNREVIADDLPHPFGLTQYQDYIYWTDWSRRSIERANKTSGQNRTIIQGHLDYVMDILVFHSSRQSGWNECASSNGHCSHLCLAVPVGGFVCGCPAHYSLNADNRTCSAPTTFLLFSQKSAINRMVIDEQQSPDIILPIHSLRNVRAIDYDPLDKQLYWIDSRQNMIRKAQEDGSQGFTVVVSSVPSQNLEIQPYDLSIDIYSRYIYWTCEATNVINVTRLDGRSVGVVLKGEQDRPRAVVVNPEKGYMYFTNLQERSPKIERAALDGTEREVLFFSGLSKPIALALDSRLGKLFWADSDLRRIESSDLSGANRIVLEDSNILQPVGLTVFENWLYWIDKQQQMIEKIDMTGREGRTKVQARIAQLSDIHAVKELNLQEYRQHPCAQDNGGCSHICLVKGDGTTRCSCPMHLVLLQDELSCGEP
Protocol: as §3
One antibody fragment, 009S-E04, was selected for alanine-scanning mutagenesis of CDRs, and the respective LRP6 binding affinities of the various mutants were determined by Octet BLI as described in Example 1.

LRP6E3E4_O75581_631-1246 [5] = target: T2, LRP6E3E4_O75581_631-1246; assay: co-crystal structure, column Antigen
Protocol: as §1, §2

B1: VHH36 (013S-D05) (VHH)
VHH: QVKLEESGGGLVQAGGSLRLSCAASGRIFSIYDMGWFRQAPGKEREFVSGIRWSGGTSYADSVKGRFTISKDNAKNTIYLQMNNLKAEDTAVYYCGSRGYWGQGTLVTVSS
modifications: Gln1 modified as pyroglutamate
notes: construct of the crystal structure
B1: binds (LRP6E3E4_O75581_631-1246 [1]).

B2: 009S-D04 (VHH)
VHH: QVKLEESGGGLVQPGGSLRLSCETSATIVSIYRINWYRQAPGKQREWVAGITSSGRTIYADSVKGRFTISRDNAKNTVYLQMNNLKPEDTAVYYCNAASTVTAWPYYGPDYWGKGTLVTVSS
B2 was tested, and the Kd (LRP6E3E4_O75581_631-1246 [2]) was < 500 nM, the Kd (LRP6e1e2) was < 500 nM and the Kd (LRP6E3E4_O75581_631-1246 [3]) was > 500 nM.

B3: 009S-E04 (VHH)
VHH: DVQLVESGGGLVQAGGSLRLACAGSGRIFAIYDIAWYRHPPGNQRELVAMIRPVVTEIDYADSVKGRFTISRNNAMKTVYLQMNNLKPEDTAVYYCNAKRPWGSRDEYWGQGTQVTVSS
B3 was tested, and the Kd (LRP6E3E4_O75581_631-1246 [2]) was < 500 nM, the Kd (LRP6E3E4_O75581_631-1246 [4]) was < 500 nM and the Kd (biotinylated-LRP6 CRD) was < 100 nM.

B4: VHH36 (013S-D05) (VHH)
VHH: QVKLEESGGGLVQAGGSLRLSCAASGRIFSIYDMGWFRQAPGKEREFVSGIRWSGGTSYADSVKGRFTISKDNAKNTIYLQMNNLKAEDTAVYYCGSRGYWGQGTLVTVSS
modifications: Gln1 modified as pyroglutamate (in the crystal structure)
notes: Construct of the crystal structure, with C-terminal GSGSG-His6; the complex was treated with carboxypeptidase A and B before crystallisation
B4: binds (LRP6E3E4_O75581_631-1246 [5]).
